{"source": "patent US6495144B2", "about": "“EBNA2 peptides and methods of using same” (Johns Hopkins University School of Medicine, priority 1996, dated 2002)", "molecules": {"B1": {"name": "SR360VD (PKC): EBNA2 with mutation of the putative PKC phosphorylation site (protein)", "chain": "MPTFYLALHGGQTYHLIVDTDSLGNPSLSVIPSNPYQEQLSDTPLIPLTIFVGENTGVPPPLPPPPPPPPPPPPPPPPPPPPPPPPPPSPPPPPPPPPPPQRRDAWTQEPSPLDRDPLGYDVGHGPLASAMRMLWMANYIVRQSRGDRGLILPQGPQTAPQARLVQPHVPPLRPTAPTILSPLSQPRLTPPQPLMMPPRPTPPTPLPPATLTVPPRPTRPTTLPPTPLLTVLQRPTELQPTPSPPRMHLPVLHVPDQSMHPLTHQSTPNDPDSPEPRSPTVFYNIPPMPLPPSQLPPPAAPAQPPPGVINDQQLHHLPSGPPWWPPICDPPQPSKTQGQSRGQSRGRGRGRGRGRGKGKVDDKQRKPGGPWRPEPNTSSPSMPELSPVLGLHQGQGAGDSPTPGPSNAAPVCRNSHTATPNVSPIHEPESHNSPEAPILFPDDWYPPSIDPADLDESWDYIFETTESPSSDEDYVEGPSKRPRPSIQ"}, "B2": {"name": "LGL389SRT (CR7): EBNA2 with LGL at position 389 in CR7 changed to SRT (protein)", "chain": "B1 chain with V360S, D361R, L389S, G390R, L391T"}}, "key": {"CBF1/RBPJk": {"biological_target": "T1, CBF1/RBPJk (Homo sapiens, UniProt Q06330)", "T1 construct": "EMSA using CBF1 purified by heparin-agarose chromatography; endogenous in cells; host or cells: CA46 cells (fractionated extract, heparin-agarose)", "T1 sequence (Q06330 whole entry)": "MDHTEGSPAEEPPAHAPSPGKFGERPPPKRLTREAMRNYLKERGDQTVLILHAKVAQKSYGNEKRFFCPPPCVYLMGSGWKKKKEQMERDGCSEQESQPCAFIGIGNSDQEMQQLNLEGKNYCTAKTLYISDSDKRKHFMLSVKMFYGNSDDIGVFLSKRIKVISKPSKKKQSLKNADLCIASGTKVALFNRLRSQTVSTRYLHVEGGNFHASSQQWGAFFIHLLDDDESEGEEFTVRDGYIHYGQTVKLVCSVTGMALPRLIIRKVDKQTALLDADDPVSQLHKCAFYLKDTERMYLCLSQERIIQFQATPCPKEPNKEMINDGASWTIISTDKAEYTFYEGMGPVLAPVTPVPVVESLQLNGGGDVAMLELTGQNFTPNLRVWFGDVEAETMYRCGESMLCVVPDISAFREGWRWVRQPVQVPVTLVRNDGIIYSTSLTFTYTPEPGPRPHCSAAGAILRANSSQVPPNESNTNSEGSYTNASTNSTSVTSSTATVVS", "assay": "EMSA of EBNA2/CBF1 complex formation with in vitro translated EBNA2 peptides", "format": "binding", "details": "for effect in reducing the amounts of EBNA2/CBF1 complex formed: fold, in words", "from_the_text": "FIG. 3 is an autoradiogram that depicts the effect of mutations on the ability of an EBNA2 (i.e., E2) peptide comprising amino acids 252-425 to interact with CBF1/RBPJk: probe (lane 1); E2 only (lane 2); lysate (lane 3); CBF1 (lane 4); CBF1 and lysate (lane 5); CBF1 and E2 252-425 (lane 6); CBF1 and del376-425 (lane 7); CBF1 and del343-425 (lane 8); CBF1 and del252-366 (lane 9); CBF1 and del252-309, del398-425 (lane 10); CBF1 and del344-357 (lane 11); CBF1 and II307SR (CR5) (lane 12); CBF1 and GP320SR (CR6) (lane 13); CBF1 and WW323SR (CR6) (lane 14); CBF1 and PI326SR (CR6) (lane 15); CBF1 and SR360VD (PKC) (lane 16); and CBF1 and LGL389SRT (CR7) (lane 17). Results of an EMSA using CBF1 purified by heparin-agarose chromatography and a 30-base pair oligonucleotide probe containing the Cp CBF1 binding site (Ling et al. (1993a), supra) are shown. The wild-type EBNA2 and mutant EBNA2 peptides spanning amino acids 252-425 were in vitro transcribed and translated, and equimolar amounts were added to the binding reactions. Addition of unprogrammed reticulocyte lysate to the CBF1 extract (+lysate) produced a minor bandshift that migrated in the range of the E2/CBF1 complex. The EBNA2/CBF1 complexes (i.e., E2/CBF1 complexes) vary in mobility depending on the size of the added EBNA2 peptide.\nFIG. 6 is an EMSA that compares the ability of type A EBNA2 (i.e., EBNA2 comprising amino acids 252-425) and the homologous domains of type B (i.e., EBNA2 comprising amino acids 216-392) and HVP EBNA2 (i.e., HBP EBNA2 comprising amino acids 288-470) to form complexes with CBF1/RBPJk. The EBNA2 peptides and CBF1/RPBPJk were prepared by in vitro transcription and translation. EBNA2 peptides were added with two-fold increases in amount (black triangles) to a binding mixture containing a constant amount of CBF1/RBPJk and a 30-base pair Cp CBF1 binding site probe. Symbols: P, probe only; R, reticulolysate.\nThe relative positions of the various functional domains the EBNA2 protein are depicted in FIG. 1. To define the amino acids required for interaction with CBF1, various synthetic peptides comprising the promoter targeting domain (i.e., the CBF1/RBPJk interaction domain) were constructed. The truncated and mutated peptides diagrammed in FIG. 2 were synthesized by in vitro transcription-translation, and were tested for their ability to form complexes with CBF1 that could be detected in an electrophoretic mobility shift assay (EMSA) (Ling et al., J. Virol., 69, 1944-1950 (1995)). The expressed peptides were tested using a fractionated extract of EBV negative lymphoblastoid CA46 cells (American Type Culture Collection, Rockville, Md.). The peptides were labeled with ^35S-methionine, and their integrity was confirmed by sodium dodecylsulfate sulfate-polyacrylamide gel electrophoresis (SDS-PAGE). To ensure that equal amounts of the EBNA2 peptides were added to each binding reaction mixture, the SDS-PAGE bands were quantitated using a Molecular Dynamics Phosphorimager, and the volume of the samples was adjusted on the basis of peptide size and the number of methionine residues."}, "[1]": {"test_system": "EBV latency C promoter (Cp-CAT)", "assay": "Cp-CAT transactivation by EBNA2 effector DNAs cotransfected in DG75 cells", "format": "cell-based, Epstein-Barr virus", "details": "for transactivation of Cp-CAT, dose-response, in words: 0-2.0 μg effector DNA, 2 μg target; for % Transactivation: relative EBNA2 transactivation of the Cp, at DNA concentrations giving 50% acetylation for wild-type EBNA2, mutations in full-length EBNA2", "description": "FIGS. 4A-4B are graphs that depict μg effector versus % acetylation for transactivation in DG75 cells of a Cp-CAT construction (Ling et al. (1993b), supra) cotransfected at 2 μg with increasing amounts (i.e., 0, 0.25, 0.5, 1.0 and 2.0 μg) of the indicated EBNA2 effector DNAs. Immunoblot analysis confirmed the equivalent expression of the different EBNA2 effector constructions in transfected cells.\nFIGS. 7A-7B are graphs that depict μg effector versus fold-induction for cotransfection assays comparing the ability of type A EBNA2 and type B EBNA2 to transactivate expression from Cp-CAT (FIG. 7A) and CD23p-CAT (FIG. 7B) (Ling et al. (1994), supra) in DG75 cells. The target plasmids were transfected at a constant amount (2 μg) and the effector DNAs at increasing amounts of 0, 0.25, 0.5, 1.0 and 2.0 μg.\nIn order to correlate the effect of the mutations on CBF1 interaction measured in the in vitro binding assays with the effects on CBF1 interaction in vivo in cultured cells, the point mutations and the glycine-arginine deletion were incorporated into full-length EBNA2 proteins which were used to study EBNA2 targeting in transactivation assays. The mutant proteins were synthesized in equal abundance in transfected cells as assessed by Western blot analysis. FIGS. 4A and 4B compare the ability of wild-type and mutant EBNA2 proteins to transactivate expression from the EBV latency C promoter in a dose-response assay (Ling et al. (1993b), supra)."}}, "note": "Substitutions are numbered along the chain they refer to."}
{"molecule": "B1", "values": [{"measurement": "reduction in EBNA2/CBF1 complex formation", "setting": "CBF1/RBPJk; 252-425 peptide with mutation, relative to wild-type peptide", "result": 40, "unit": "%"}, {"measurement": "effect in reducing the amounts of EBNA2/CBF1 complex formed", "setting": "CBF1/RBPJk", "result": "approximately two-fold"}, {"measurement": "transactivation of Cp-CAT, dose-response, in words", "setting": "[1]", "result": "did not affect transactivation"}, {"measurement": "% Transactivation", "setting": "[1]", "result": 110, "unit": "%"}]}
{"molecule": "B2", "values": [{"measurement": "effect in reducing the amounts of EBNA2/CBF1 complex formed", "setting": "CBF1/RBPJk", "result": "approximately two-fold"}, {"measurement": "transactivation of Cp-CAT, dose-response, in words", "setting": "[1]", "result": "did not affect transactivation"}, {"measurement": "% Transactivation", "setting": "[1]", "result": 100, "unit": "%"}]}
